What was measured:
Notch1 on OLN-93 cells = biological target: T1, Notch1 on OLN-93 cells (rat, UniProt Q07008 19-2531); experiment: OLN-93 cell adhesion to control substrate
T1 construct: whole, on cells; OLN-93 cells carry both Notch1 and Notch2; also called OLN cells
Description: (§1) This was carried out as previously described (Xiao et al, 1996). Briefly, 35 mm tissue culture petri dishes (Becton Dickinson) were coated with methanol solubilized nitrocellulose (Lagenaur and Lemon, 1987) and air-dried under a sterile hood. […] Subsequently, the dishes were washed three times with calcium- and magnesium-free Hank's balanced salt solution (CMF-HBSS) and blocked overnight with 2% heat-inactivated fatty acid-free BSA (Sigma) in CMF-HBSS (this blocking step is skipped in the repulsion test). […] After 0.5 hour (in the adhesion test) or 12 hours (in the repulsion test), the dishes were gently washed three times with CMF-HBSS and the cells were fixed with 2.5% glutaldehyde in CMF-HBSS. […] Cells adhering to the various spots were photographed and counted. The results were analyzed by Student's t test with p<0.05 and p<0.01 being considered significant or highly significant difference, respectively.

Notch2 on OLN-93 cells = biological target: T2, Notch2 on OLN-93 cells (rat, UniProt Q9QW30 26-2471); experiment: OLN-93 cell adhesion to control substrate
T2 construct: whole, on cells; also called OLN cells
Description: as §1

[1] = biological target: T3, F3 on F3-transfected CHO cells (UniProt P12960 21-1001); experiment: cell adhesion assay, F3-CHO cells on coated substrate
T3 construct: whole, on cells; also called F3-CHO; F3-expressing CHO cells
T3 sequence (looked up): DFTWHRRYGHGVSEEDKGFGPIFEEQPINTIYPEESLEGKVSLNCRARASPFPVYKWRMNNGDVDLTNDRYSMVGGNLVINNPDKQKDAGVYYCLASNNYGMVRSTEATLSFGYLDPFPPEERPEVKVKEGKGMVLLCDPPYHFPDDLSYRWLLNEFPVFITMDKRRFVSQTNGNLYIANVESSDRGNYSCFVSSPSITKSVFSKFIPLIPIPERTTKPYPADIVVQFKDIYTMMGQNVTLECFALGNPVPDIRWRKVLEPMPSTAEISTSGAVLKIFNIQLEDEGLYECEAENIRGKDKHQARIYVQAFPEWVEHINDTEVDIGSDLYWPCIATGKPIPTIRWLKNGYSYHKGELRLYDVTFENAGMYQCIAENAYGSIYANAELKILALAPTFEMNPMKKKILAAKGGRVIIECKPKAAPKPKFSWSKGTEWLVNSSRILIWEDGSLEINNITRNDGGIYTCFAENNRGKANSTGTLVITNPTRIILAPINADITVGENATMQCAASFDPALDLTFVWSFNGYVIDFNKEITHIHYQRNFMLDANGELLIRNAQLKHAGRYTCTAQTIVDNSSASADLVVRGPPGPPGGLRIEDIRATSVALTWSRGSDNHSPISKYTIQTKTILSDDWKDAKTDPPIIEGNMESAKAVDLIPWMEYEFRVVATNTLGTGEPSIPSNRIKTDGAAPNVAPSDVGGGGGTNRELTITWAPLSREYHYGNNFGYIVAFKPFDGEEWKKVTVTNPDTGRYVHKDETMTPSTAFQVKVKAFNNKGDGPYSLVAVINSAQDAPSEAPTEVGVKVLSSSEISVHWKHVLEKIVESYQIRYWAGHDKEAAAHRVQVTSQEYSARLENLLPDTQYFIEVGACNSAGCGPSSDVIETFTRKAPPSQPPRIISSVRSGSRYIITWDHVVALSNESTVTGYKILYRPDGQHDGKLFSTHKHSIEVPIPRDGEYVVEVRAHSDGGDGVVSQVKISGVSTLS

[2] = biological target: T4, Caspr (native, mouse brain) (mouse, UniProt O54991 21-1385); experiment: GST pull-down from adult mouse brain membrane extracts
T4 construct: also called mouse Caspr
T4 sequence (looked up): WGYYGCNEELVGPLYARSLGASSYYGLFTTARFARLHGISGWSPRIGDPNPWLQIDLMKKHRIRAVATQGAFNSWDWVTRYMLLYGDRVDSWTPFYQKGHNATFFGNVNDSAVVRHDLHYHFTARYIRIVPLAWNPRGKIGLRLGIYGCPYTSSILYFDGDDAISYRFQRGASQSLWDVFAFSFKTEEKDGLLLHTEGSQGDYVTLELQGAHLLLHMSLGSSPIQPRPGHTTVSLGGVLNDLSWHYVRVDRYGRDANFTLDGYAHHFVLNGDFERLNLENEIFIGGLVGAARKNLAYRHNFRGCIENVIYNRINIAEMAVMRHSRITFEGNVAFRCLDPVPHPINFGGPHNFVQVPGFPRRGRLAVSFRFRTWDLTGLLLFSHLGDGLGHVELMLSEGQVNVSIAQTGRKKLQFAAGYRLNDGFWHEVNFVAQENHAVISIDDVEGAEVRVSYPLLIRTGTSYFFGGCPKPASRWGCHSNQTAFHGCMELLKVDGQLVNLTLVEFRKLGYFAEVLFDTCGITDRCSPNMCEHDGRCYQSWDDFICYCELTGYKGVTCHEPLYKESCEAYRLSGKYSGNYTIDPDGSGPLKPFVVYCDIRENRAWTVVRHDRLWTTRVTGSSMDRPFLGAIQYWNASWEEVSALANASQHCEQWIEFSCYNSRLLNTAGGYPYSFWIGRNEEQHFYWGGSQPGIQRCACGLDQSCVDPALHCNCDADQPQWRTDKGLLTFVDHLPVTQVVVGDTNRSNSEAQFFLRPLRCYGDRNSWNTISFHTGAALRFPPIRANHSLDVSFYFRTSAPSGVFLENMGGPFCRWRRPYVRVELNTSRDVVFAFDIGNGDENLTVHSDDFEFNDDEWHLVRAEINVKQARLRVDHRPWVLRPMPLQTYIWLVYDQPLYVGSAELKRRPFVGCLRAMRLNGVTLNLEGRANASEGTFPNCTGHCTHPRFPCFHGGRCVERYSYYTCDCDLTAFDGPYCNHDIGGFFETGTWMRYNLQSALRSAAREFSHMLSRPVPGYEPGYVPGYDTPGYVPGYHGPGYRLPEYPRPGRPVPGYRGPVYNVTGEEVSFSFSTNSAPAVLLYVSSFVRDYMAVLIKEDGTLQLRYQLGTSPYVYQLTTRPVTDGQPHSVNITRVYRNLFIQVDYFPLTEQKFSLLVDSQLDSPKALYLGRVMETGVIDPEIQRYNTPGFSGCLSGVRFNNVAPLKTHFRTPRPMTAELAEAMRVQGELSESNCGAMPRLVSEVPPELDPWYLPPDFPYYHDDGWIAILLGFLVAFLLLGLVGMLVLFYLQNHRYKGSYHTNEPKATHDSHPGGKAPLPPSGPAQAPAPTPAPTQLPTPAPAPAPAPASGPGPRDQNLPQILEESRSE
Excerpt: (§2) During myelination, the proper segregation of K^+ channels to juxtaparanodes requires an intact paranodal axoglial junction (Vabnick and Shrager, 1998).

[3] = biological target: T5, Kv1.1 (native, mouse brain extracts) (mouse, UniProt P16388 1-495); experiment: as above
T5 construct: also called Kv1.1 K+ channel alpha-subunit
T5 sequence (P16388 whole entry): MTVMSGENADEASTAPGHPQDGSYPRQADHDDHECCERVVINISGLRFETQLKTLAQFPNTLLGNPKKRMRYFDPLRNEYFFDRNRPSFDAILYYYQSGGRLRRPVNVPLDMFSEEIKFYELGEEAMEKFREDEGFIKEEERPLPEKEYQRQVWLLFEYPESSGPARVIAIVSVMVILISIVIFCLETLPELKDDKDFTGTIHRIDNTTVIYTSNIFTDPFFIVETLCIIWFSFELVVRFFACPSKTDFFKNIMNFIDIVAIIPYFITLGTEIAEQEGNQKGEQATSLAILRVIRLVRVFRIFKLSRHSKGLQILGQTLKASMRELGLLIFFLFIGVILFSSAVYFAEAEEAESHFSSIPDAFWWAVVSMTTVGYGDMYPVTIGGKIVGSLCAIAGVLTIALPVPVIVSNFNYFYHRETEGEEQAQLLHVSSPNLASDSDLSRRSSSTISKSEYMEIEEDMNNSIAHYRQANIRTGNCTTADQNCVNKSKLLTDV
Excerpt: as §2

T1 sequence (Q07008 19-2531): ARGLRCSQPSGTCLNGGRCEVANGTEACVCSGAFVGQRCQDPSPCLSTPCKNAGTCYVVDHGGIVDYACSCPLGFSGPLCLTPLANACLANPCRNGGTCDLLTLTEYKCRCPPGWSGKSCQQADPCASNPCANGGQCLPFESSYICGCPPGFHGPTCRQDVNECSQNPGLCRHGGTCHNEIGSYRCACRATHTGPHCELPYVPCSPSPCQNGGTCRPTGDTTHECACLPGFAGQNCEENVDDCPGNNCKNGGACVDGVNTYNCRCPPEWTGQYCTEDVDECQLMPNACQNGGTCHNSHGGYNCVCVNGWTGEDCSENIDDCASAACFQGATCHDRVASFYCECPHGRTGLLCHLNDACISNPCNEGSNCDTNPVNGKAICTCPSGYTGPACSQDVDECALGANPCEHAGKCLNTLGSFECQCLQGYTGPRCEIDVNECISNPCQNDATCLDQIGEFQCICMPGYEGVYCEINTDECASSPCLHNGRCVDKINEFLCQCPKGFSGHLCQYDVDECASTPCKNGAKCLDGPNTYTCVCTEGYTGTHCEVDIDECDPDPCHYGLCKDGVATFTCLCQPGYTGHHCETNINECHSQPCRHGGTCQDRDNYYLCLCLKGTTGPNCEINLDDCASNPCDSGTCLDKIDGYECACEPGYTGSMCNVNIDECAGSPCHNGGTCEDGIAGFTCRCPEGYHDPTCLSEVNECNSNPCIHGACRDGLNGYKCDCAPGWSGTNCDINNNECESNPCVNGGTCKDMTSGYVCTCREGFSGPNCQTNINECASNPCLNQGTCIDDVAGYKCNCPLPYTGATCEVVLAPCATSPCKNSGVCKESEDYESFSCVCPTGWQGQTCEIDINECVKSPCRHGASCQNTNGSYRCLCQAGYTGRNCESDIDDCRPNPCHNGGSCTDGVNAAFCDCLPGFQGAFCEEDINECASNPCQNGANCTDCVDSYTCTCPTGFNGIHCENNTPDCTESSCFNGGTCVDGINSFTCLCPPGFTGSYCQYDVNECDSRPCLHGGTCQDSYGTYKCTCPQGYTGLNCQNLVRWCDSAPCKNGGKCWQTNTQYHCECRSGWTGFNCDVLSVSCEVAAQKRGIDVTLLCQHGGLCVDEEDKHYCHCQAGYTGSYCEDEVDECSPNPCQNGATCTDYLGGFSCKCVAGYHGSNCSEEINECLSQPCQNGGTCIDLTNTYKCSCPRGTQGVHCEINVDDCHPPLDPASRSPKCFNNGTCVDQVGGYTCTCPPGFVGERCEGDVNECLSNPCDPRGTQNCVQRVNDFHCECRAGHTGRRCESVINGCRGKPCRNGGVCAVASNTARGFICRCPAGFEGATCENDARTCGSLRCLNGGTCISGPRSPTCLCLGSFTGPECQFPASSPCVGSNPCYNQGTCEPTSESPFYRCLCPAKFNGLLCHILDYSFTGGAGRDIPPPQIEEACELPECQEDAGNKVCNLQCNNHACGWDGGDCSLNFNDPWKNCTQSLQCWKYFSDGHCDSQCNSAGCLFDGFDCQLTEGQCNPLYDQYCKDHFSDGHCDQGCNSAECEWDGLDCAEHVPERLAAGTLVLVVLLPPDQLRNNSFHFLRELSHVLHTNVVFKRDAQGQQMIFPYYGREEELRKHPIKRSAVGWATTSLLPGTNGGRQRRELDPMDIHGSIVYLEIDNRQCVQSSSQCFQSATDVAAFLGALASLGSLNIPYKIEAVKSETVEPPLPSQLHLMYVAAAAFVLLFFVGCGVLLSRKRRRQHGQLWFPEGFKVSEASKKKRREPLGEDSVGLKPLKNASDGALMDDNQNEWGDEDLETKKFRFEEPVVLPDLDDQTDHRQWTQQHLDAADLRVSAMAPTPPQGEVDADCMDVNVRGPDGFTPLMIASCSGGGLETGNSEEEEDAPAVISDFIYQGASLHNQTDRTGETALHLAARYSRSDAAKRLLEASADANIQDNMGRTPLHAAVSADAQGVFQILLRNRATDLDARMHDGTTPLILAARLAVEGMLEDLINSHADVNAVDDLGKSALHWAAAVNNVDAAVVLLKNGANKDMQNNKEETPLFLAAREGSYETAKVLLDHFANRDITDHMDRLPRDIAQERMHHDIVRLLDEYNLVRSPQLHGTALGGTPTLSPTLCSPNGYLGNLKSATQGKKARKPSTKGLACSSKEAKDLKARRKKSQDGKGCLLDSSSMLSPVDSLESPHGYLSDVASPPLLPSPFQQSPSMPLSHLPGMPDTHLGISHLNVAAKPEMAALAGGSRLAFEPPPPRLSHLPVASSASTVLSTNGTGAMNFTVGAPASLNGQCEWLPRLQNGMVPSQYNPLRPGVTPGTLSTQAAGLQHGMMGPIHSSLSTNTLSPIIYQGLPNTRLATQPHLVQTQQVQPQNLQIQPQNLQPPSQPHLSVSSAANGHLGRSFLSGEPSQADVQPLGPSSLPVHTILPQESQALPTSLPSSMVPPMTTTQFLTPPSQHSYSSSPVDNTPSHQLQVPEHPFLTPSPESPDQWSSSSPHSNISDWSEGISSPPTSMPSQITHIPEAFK

Row | Binder | binding result (Notch1 on OLN-93 cells) | binding result (Notch2 on OLN-93 cells) | binding result [1] | binding result [2] | binding result [3]
1 | CHL1-Fc (Fc fusion, UniProt P70232 26-1083, looked up, Control substrate; also called CHL-Fc; not shown: human IgG Fc) EIPLSVQQVPTIVKQSYVQVAFPFDEYFQIECEAKGNPEPIFSWTKDDKPFDLSDPRIIAANNSGTFKIPNEGHISHFQGKYRCFASNRLGTAVSEEIEFIVPGVPKFPKEKIEPIDVEEGDSIVLPCNPPKGLPPLHIYWMNIELEHIEQDERVYMSQRGDLYFANVEENDSRNDYCCFAAFPKLRTIVQKMPMKLTVNSSNSIKQRKPKLLLPPAQMGSLSAKTVLKGDTLLLECFAEGLPTPHIQWSKPGSELPEGRATIEVHEKTLKIENISYQDRGNYRCTANNLLGKASHDFHVTVEEPPRWKKKPQSAVYSTGSSGILLCEAEGEPQPTIKWRLNGLPIEKHPFPGDFMFPREISFTNLLPNHTGVYQCEASNIHGTILANANIDVIDVIPLIKTKNEENYATVVGYSAFLHCEYFASPKATVVWEVADETHPLEGDRYHTHENGTLEIYRTTEEDAGSYSCWVDNAMGKAVITANLDIRNATKLRVSPKNPRIPKSHVLELYCESQCDSHLKHSLKLSWSKDGEAFEMNGTEDGRIVIDGAYLTISNITAEDQGVYSCSAQTSLDSTSEKTQVTVLGVPDPPGNLHLSERQNRSVRLSWEAGDDHNSKISEYIVEFEGNREEPGKWEELTRVQGEETDVVLSLAPYVRYQFRVTAVNEVGRSHASLPSDHHETPPAAPDKNPQNIRVQASQPKEMIIKWEPLKSMEQNGPGLEYKVSWKPQGAPEEWEEEIVTNHTLRVMTPTVYAPYDVKVQAINQLGSSPDPQPVTLYSGEDYPSTAPVIQRVDVMNSTLVKVTWSSIPKETVHGLLRGYQINWWKTKSLLDGRTHPKEVNILRFSGQRNSGMVPSLDPFSEFHLTVLAYNSKGAGPESEPYIFQTPEGVPEQPSFLKVIKVDKDTATLSWGLPKKLNGNLTGYLLQYQIINDTYELGELNEINVTTPSKSSWHLSNLNSTTKYKFYLRACTSRGCGKPISEEGATLGEGSKGIRKITEGVNVTQKIHPVEVLVPGAEHIVHLMTKNWGDNDSIFQDVIETRGREYAGLYDDISTQGW | no binding (tested: 2.5 µl of 12 µM CHL1-Fc spotted) | no binding (tested: 2.5 µl of 12 µM CHL1-Fc spotted) |  |  | 
2 | GST-Nogo-N (other, human, UniProt Q9NQC3 186-370, looked up, domain: cytoplasmic N-terminal domain of Nogo-A (Nogo-N); also called Nogo-N-GST; Nogo-N-terminal-GST; not shown: glutathione S-transferase (GST) encoded by vector pGEX-KG) DETLFALPAASEPVIRSSAENMDLKEQPGNTISAGQEDFPSVLLETAASLPSLSPLSAASFKEHEYLGNLSTVLPTEGTLQENVSEASKEVSEKAKTLLIDRDLTEFSELEYSEMGSSFSVSPKAESAVIVANPREEIIVKNKDEEEKLVSNNILHNQQELPTALTKLVKEDEVVSSEKAKDSFN |  |  | no binding | no binding (tested: 20 µg bead-bound protein) | no binding (tested: 20 µg bead-bound protein)
